Laboratory results reported in IntAct's records for PubMed 20133701.

Target: T1, rara_human RARA (UniProt P10276)
T1 sequence: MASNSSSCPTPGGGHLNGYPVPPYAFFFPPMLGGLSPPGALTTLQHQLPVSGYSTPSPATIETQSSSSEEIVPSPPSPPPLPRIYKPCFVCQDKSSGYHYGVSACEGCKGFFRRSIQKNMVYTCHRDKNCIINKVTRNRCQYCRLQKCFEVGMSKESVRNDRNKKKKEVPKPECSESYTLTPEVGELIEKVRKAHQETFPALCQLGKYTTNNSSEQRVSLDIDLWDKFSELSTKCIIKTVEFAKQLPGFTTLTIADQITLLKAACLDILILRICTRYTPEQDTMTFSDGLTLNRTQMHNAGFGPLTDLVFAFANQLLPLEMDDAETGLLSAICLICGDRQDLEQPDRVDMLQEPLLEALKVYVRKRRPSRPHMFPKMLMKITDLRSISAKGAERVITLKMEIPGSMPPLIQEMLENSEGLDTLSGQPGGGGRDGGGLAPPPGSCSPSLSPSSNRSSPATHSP

LIM domain-containing protein ajuba (Mus musculus) (from UniProt Q91XC0) L292A;L293A;L295A;L418A;I419A;L420A;I488A;V489A;V491A
effect of a mutation on the interaction: disrupting interaction strength
